Data published in the Immune Epitope Database (IEDB).

What was measured:
Test in all cases: IEDB peptide-MHC binding, purified MHC/competitive/radioactivity; filed as Kd, often an IC50 or EC50 that approximates it; ≥ and ≤ were set here for values at or beyond the usual limits of such assays
HLA-A*03:01 = target: HLA-A*03:01
HLA-A*11:01 = target: HLA-A*11:01
HLA-A*31:01 = target: HLA-A*31:01
HLA-A*33:01 = target: HLA-A*33:01
HLA-A*68:01 = target: HLA-A*68:01
[1] = source organism: Vaccinia virus WR
[2] = source organism: Mammarenavirus guanaritoense
[3] = source organism: Dengue virus 4 Philippines/H241/1956
[4] = source organism: Dengue virus 1 Brazil/97-11/1997
[5] = source organism: Mammarenavirus machupoense
[6] = source organism: SARS coronavirus Tor2
[7] = source organism: Mammarenavirus brazilense
[8] = source organism: Dengue virus 2 Peru/IQT2913/1996
[9] = source organism: Triticum aestivum
[10] = source organism: SARS coronavirus ZJ0301
[11] = source organism: Mammarenavirus whitewaterense
[12] = source organism: Dengue virus 3 Martinique/1243/1999
[13] = source organism: Dengue virus 2 Jamaica/1409/1983
[14] = source organism: Lymphocytic choriomeningitis virus (strain Armstrong)
[15] = source organism: Mammarenavirus juninense

NSVANRSKQK
Kd (HLA-A*03:01; [1]): 322 nM
Kd (HLA-A*11:01; [1]): 525 nM
Kd (HLA-A*31:01; [1]): 17000 nM
Kd (HLA-A*33:01; [1]): ≥ 70000 nM
Kd (HLA-A*68:01; [1]): 568 nM

SYSKMSVVMR
Kd (HLA-A*03:01; [2]): 9970 nM
Kd (HLA-A*11:01; [2]): ≥ 21700 nM
Kd (HLA-A*31:01; [2]): 5.69 nM
Kd (HLA-A*33:01; [2]): 55.9 nM
Kd (HLA-A*68:01; [2]): 132 nM

RMLNILNGR
Kd (HLA-A*31:01; [3]): 1.16 nM

AQYKCVTIK
Kd (HLA-A*03:01; [1]): 15.7 nM
Kd (HLA-A*11:01; [1]): 37.4 nM
Kd (HLA-A*31:01; [1]): 666 nM
Kd (HLA-A*33:01; [1]): 10200 nM
Kd (HLA-A*68:01; [1]): 2180 nM

IGKMFEATAR
Kd (HLA-A*33:01; [4]): 637 nM

TMLRNSELCH
Kd (HLA-A*03:01; [5]): 10200 nM
Kd (HLA-A*11:01; [5]): ≥ 69700 nM
Kd (HLA-A*31:01; [5]): 8820 nM
Kd (HLA-A*33:01; [5]): ≥ 70000 nM
Kd (HLA-A*68:01; [5]): ≥ 70100 nM

MLVTPSMAMR
Kd (HLA-A*31:01; [4]): ≥ 51700 nM
Kd (HLA-A*33:01; [4]): 34.6 nM
Kd (HLA-A*68:01; [4]): 32 nM

ILARWSSFKK
Kd (HLA-A*03:01; [4]): 1.39 nM

SMASLKSLY
Kd (HLA-A*03:01; [1]): 1.21 nM
Kd (HLA-A*11:01; [1]): 38.4 nM
Kd (HLA-A*31:01; [1]): 692 nM
Kd (HLA-A*33:01; [1]): 16100 nM
Kd (HLA-A*68:01; [1]): 26.5 nM

KIAPGIADIR
Kd (HLA-A*03:01; [1]): 1660 nM
Kd (HLA-A*11:01; [1]): 4510 nM
Kd (HLA-A*31:01; [1]): 355 nM
Kd (HLA-A*33:01; [1]): ≥ 53900 nM
Kd (HLA-A*68:01; [1]): 5400 nM

RLVEEFFNR
Kd (HLA-A*03:01; [1]): 21.2 nM
Kd (HLA-A*11:01; [1]): 88.1 nM
Kd (HLA-A*31:01; [1]): 1.39 nM
Kd (HLA-A*33:01; [1]): 796 nM
Kd (HLA-A*68:01; [1]): 29.4 nM

AVIIRGHLR
Kd (HLA-A*03:01; [6]): ≥ 33400 nM
Kd (HLA-A*11:01; [6]): 2240 nM
Kd (HLA-A*31:01; [6]): 136 nM
Kd (HLA-A*33:01; [6]): ≥ 28200 nM
Kd (HLA-A*68:01; [6]): 2640 nM

DFTLFIKTGH
Kd (HLA-A*11:01; [7]): ≥ 58700 nM
Kd (HLA-A*31:01; [7]): 4540 nM
Kd (HLA-A*33:01; [7]): 131 nM
Kd (HLA-A*68:01; [7]): 2480 nM

LMKSLGGGR
Kd (HLA-A*31:01; [4]): ≥ 57600 nM

NFLRSIAMLK
Kd (HLA-A*03:01; [1]): 74.6 nM
Kd (HLA-A*11:01; [1]): 316 nM
Kd (HLA-A*31:01; [1]): 9.91 nM
Kd (HLA-A*33:01; [1]): 70 nM
Kd (HLA-A*68:01; [1]): 272 nM

VMAFHLTTR
Kd (HLA-A*03:01; [8]): 51.7 nM
Kd (HLA-A*31:01; [8]): 7.39 nM

QQQQQQQQQK
Kd (HLA-A*03:01; [9]): 11200 nM
Kd (HLA-A*11:01; [9]): 4840 nM
Kd (HLA-A*31:01; [9]): ≥ 23200 nM
Kd (HLA-A*33:01; [9]): ≥ 70000 nM
Kd (HLA-A*68:01; [9]): ≥ 46700 nM

DMISYGGGWR
Kd (HLA-A*33:01; [3]): 506 nM

AANEMGLIEK
Kd (HLA-A*11:01; [3]): 281 nM

GVIRSIFAR
Kd (HLA-A*03:01; [6]): 1300 nM
Kd (HLA-A*11:01; [6]): 0.618 nM
Kd (HLA-A*31:01; [6]): 1.02 nM
Kd (HLA-A*33:01; [6]): 118 nM
Kd (HLA-A*68:01; [6]): 0.519 nM

LLNSNALLR
Kd (HLA-A*03:01; [10]): 14.7 nM
Kd (HLA-A*11:01; [10]): 222 nM
Kd (HLA-A*31:01; [10]): 148 nM
Kd (HLA-A*33:01; [10]): 6980 nM
Kd (HLA-A*68:01; [10]): 687 nM

PMPCMINDTH
Kd (HLA-A*03:01; [11]): ≥ 70000 nM
Kd (HLA-A*11:01; [11]): ≥ 69700 nM
Kd (HLA-A*31:01; [11]): ≥ 70000 nM
Kd (HLA-A*33:01; [11]): ≥ 70000 nM
Kd (HLA-A*68:01; [11]): ≥ 70100 nM

EYRLKGESR
Kd (HLA-A*33:01; [12]): 18.6 nM

FTFGDTALY
Kd (HLA-A*03:01; [1]): 612 nM
Kd (HLA-A*11:01; [1]): 192 nM
Kd (HLA-A*31:01; [1]): 14300 nM
Kd (HLA-A*33:01; [1]): ≥ 50000 nM
Kd (HLA-A*68:01; [1]): 2.27 nM

IVMLHTTER
Kd (HLA-A*31:01; [3]): 2.36 nM
Kd (HLA-A*33:01; [3]): 13.9 nM
Kd (HLA-A*68:01; [3]): 19.7 nM

TSEVHWNYK
Kd (HLA-A*11:01; [3]): 84.9 nM

VTNHMEGEHK
Kd (HLA-A*11:01; [13]): 508 nM

TLVVISVIFY
Kd (HLA-A*03:01; [1]): 3490 nM
Kd (HLA-A*11:01; [1]): 1370 nM
Kd (HLA-A*31:01; [1]): 12500 nM
Kd (HLA-A*33:01; [1]): ≥ 70000 nM
Kd (HLA-A*68:01; [1]): 8660 nM

TLGNFSWFPH
Kd (HLA-A*03:01; [14]): 2150 nM
Kd (HLA-A*11:01; [14]): 1380 nM
Kd (HLA-A*31:01; [14]): 570 nM
Kd (HLA-A*33:01; [14]): 12600 nM
Kd (HLA-A*68:01; [14]): 8980 nM

LFMALVAFLR
Kd (HLA-A*31:01; [13]): 95.5 nM
Kd (HLA-A*33:01; [13]): 93.2 nM
Kd (HLA-A*68:01; [13]): 192 nM

LFYPSMFTLR
Kd (HLA-A*03:01; [1]): 1590 nM
Kd (HLA-A*11:01; [1]): 7330 nM
Kd (HLA-A*31:01; [1]): 1.33 nM
Kd (HLA-A*33:01; [1]): 28.9 nM
Kd (HLA-A*68:01; [1]): 2.66 nM

TTDDLVKSY
Kd (HLA-A*03:01; [1]): ≥ 53000 nM
Kd (HLA-A*11:01; [1]): 747 nM
Kd (HLA-A*31:01; [1]): 4700 nM
Kd (HLA-A*33:01; [1]): 18100 nM
Kd (HLA-A*68:01; [1]): 12100 nM

EQNLTDTNFK
Kd (HLA-A*03:01; [1]): 17900 nM
Kd (HLA-A*11:01; [1]): 1250 nM
Kd (HLA-A*31:01; [1]): ≥ 70000 nM
Kd (HLA-A*33:01; [1]): ≥ 60600 nM
Kd (HLA-A*68:01; [1]): 681 nM

LFTSTNDKIK
Kd (HLA-A*03:01; [1]): ≥ 24900 nM
Kd (HLA-A*11:01; [1]): 915 nM
Kd (HLA-A*31:01; [1]): ≥ 65600 nM
Kd (HLA-A*33:01; [1]): ≥ 55200 nM
Kd (HLA-A*68:01; [1]): 531 nM

TRFWYINHTK
Kd (HLA-A*03:01; [2]): 1910 nM
Kd (HLA-A*11:01; [2]): 1410 nM
Kd (HLA-A*31:01; [2]): 89.5 nM
Kd (HLA-A*33:01; [2]): ≥ 70000 nM
Kd (HLA-A*68:01; [2]): 93.2 nM

SIFAGHLKCR
Kd (HLA-A*33:01; [12]): 116 nM

LLSCIRNASK
Kd (HLA-A*03:01; [1]): 66.2 nM
Kd (HLA-A*11:01; [1]): 29.3 nM
Kd (HLA-A*31:01; [1]): 822 nM
Kd (HLA-A*33:01; [1]): 16700 nM
Kd (HLA-A*68:01; [1]): 195 nM

EKYGHLCKYH
Kd (HLA-A*03:01; [15]): ≥ 70000 nM
Kd (HLA-A*11:01; [15]): ≥ 69700 nM
Kd (HLA-A*31:01; [15]): ≥ 70000 nM
Kd (HLA-A*33:01; [15]): ≥ 70000 nM
Kd (HLA-A*68:01; [15]): ≥ 70100 nM

ALRGLPIRY
Kd (HLA-A*03:01; [13]): 52.8 nM

ITANPVVTK
Kd (HLA-A*03:01; [12]): 18.1 nM
Kd (HLA-A*11:01; [12]): 22.3 nM
Kd (HLA-A*68:01; [12]): 47.9 nM

VIDPRRCLK
Kd (HLA-A*03:01; [4]): 49.3 nM
Kd (HLA-A*11:01; [4]): 1500 nM

LLALNDMGK
Kd (HLA-A*03:01; [12]): 294 nM

YLALIATFK
Kd (HLA-A*03:01; [12]): 4.7 nM
Kd (HLA-A*68:01; [12]): 31.8 nM

AMLFLISGK
Kd (HLA-A*03:01; [12]): 185 nM
Kd (HLA-A*11:01; [12]): 211 nM

KLGEFGRAK
Kd (HLA-A*03:01; [3]): 1.75 nM

IFLFLMSGR
Kd (HLA-A*31:01; [8]): 59.9 nM
Kd (HLA-A*33:01; [8]): 10 nM

FLALGFFLR
Kd (HLA-A*31:01; [12]): 43 nM
Kd (HLA-A*33:01; [12]): 26.5 nM
Kd (HLA-A*68:01; [12]): 2.14 nM

LISYGGGWK
Kd (HLA-A*03:01; [13]): 338 nM

DSVCACGLFK
Kd (HLA-A*11:01; [11]): 133 nM

ILKRWGTIKK
Kd (HLA-A*03:01; [13]): 47.4 nM

DFKEFASGR
Kd (HLA-A*33:01; [3]): 2.23 nM
